The assay has as its target T1, endogenous wild type TDP-43 of HEK293 cells (human, UniProt Q13148 1-414).
T1 construct: whole, on cells; Intracellular endogenous protein: nuclear in unstressed cells; also called endogenous, nuclear WT TDP-43; normal nuclear TDP-43
In words: co-localization immunocytochemistry, intrabody expressed in HEK293 cells.

T1 sequence (Q13148 whole entry): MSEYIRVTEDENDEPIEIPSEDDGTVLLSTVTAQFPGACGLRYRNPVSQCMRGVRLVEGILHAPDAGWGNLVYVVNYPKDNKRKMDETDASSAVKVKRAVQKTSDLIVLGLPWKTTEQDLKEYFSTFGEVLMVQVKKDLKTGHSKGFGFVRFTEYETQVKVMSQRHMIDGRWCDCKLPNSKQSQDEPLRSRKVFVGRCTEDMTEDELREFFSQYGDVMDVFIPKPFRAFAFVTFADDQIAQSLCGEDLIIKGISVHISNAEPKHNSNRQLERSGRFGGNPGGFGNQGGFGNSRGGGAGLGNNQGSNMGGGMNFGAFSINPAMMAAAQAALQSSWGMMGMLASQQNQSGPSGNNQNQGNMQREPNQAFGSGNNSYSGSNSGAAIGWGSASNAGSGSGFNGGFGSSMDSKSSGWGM

B1: MYCL20H-14H1-14K2 (scFv)
scFv: MAIVMTQTPSSKSVPVGGSVTINCQASESVYSNNRLSWYQQKPGQPPKLLIYYASTLESGVPSRFKGSGFGTHFTLTISGAQCDDAATYYCAGWRGARTDGVDFGGGTEVVVKGSTGGGGSGKPGSGEGGGGSQEQLEESGGDLVKPEGSLTLTCTASGFSFSSNYVMCWVRQAPGKGLEWVACIWFAGIVDTTYYATWAKGRFTISKTSSTTVTLQMTSLTAADTATYFCARNPVGSVNLWGQGTLVTVSSGSGEQKLISEEDL
notes: Intrabody: VL-20 aa linker-VH-GSG-MYC tag
Consider B1, for which the binding result was “no binding”.

B2: YPTL-2F7 (scFv)
scFv: MDVKLVESGGGLVKLGGSLKLSCAASGFTFSSYYMSWVRQTPEKRLELVATINSNGGSTYYPDTVKGRITISRDNAKNTLQLQMSSLRSEDTALYYCVRQNYEGAYWGQGTLVTVSAGGGGSGGGGSGGGGSDVLMTQTPLSLPVTLGDQASISCRSSQSIVHSNGNTYLEWYLQKPGQSPKLLIYKVSNRFSGVPDRFSGSGSGTDFTLKISRVEAEDLGVYYCFQSSHVPWTFGGGTKLEIKDYKDDDDKRWRKSHSSSYTPLSGSTYPEGRH
As to B2, the binding result is given as “no binding”.

B3: YPTL-14H1-14K2 (scFv)
scFv: MQEQLEESGGDLVKPEGSLTLTCTASGFSFSSNYVMCWVRQAPGKGLEWVACIWFAGIVDTTYYATWAKGRFTISKTSSTTVTLQMTSLTAADTATYFCARNPVGSVNLWGQGTLVTVSSGGGGSGGGGSGGGGSVMTQTPSSKSVPVGGSVTINCQASESVYSNNRLSWYQQKPGQPPKLLIYYASTLESGVPSRFKGSGFGTHFTLTISGAQCDDAATYYCAGWRGARTDGVDFGGGTEVVVKDYKDDDDKRWRKSHSSSYTPLSGSTYPEGRH
Consider B3, for which the binding result is on record as “no binding”.

For the origin of these results see patent US20230174630A1 (UNIVERSITY OF BRITISH COLUMBIA, published 2023).
